Results from patent US20260034217A1 (REGENTS OF THE UNIVERSITY OF COLORADO A BODY CORPORATE, published 2026).

Target: CD64 (high affinity immunoglobulin gamma Fc receptor I) (human, UniProt P12314 16-374)
Assay: cell-based or functional assay

Chain of CD64 (high affinity immunoglobulin gamma Fc receptor I) (P12314 16-374, form in doubt): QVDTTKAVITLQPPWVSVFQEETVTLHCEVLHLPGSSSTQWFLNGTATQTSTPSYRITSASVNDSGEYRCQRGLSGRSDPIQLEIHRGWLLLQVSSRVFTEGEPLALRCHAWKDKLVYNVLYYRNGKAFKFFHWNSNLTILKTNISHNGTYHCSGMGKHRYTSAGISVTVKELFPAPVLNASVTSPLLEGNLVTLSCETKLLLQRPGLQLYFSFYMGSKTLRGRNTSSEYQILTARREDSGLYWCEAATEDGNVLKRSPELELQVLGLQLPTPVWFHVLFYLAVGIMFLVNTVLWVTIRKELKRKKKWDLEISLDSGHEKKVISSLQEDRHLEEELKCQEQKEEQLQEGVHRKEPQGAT

fold decrease in CD64+ AML cells (monocytic patient sample), flow cytometry, CAR-T with or without ven/aza: > 40 fold
B1: CD64-BB-m22 CAR (CD64 CAR containing the m22 scFv and a 4-1BB costimulatory domain) (other)
chain: EVQLVESGGGLVKPGGSLRLSCVASGFIFSDNYMYWVRQTPEKRLEWVATISDGGSYTYYPDSVKGRFTISRDNAKNNLYLQMSSLKSEDTAIYYCARGYYRYEGAMDYWGQGTSVTVSSGGGGSGGGGSGGGGSNIVMTQSPSSLAVSAGEKVTMSCKSSQSVLYSSNQKNYLAWYQQKPGQSPKLLIYWASTRESGVPDRFTGSGSGTDFTLTISSVQAEDLAVYYCHQYLSSWTFGGGTKLEIKTSTTTPAPRPPTPAPTIASQPLSLRPEACRPAAGGAVHTRGLDFACDIYIWAPLAGTCGVLLLSLVITLYCKRGRKKLLYIFKQPFMRPVQTTQEEDGCSCRFPEEEEGGCELSRVKFSRSADAPAYQQGQNQLYNELNLGRREEYDVLDKRRGRDPEMGGKPRRKNPQEGLYNELQKDKMAEAYSEIGMKGERRRGKGHDGLYQGLSTATKDTYDALHMQALPPR
fold decrease in viable AML cells (mixed monocytic/primitive patient sample), flow cytometry after 48 hours with CAR-T cells alone: 4.2 fold
